Paper PMC6230994 (2018)

Target: His6:ΔIBB-IMPORTIN-α2 (Arabidopsis thaliana (Mouse-ear cress), UniProt F4JL11)
Assay: analytical SEC

Sequence of His6:ΔIBB-IMPORTIN-α2 (F4JL11 75-535, stated change not applied): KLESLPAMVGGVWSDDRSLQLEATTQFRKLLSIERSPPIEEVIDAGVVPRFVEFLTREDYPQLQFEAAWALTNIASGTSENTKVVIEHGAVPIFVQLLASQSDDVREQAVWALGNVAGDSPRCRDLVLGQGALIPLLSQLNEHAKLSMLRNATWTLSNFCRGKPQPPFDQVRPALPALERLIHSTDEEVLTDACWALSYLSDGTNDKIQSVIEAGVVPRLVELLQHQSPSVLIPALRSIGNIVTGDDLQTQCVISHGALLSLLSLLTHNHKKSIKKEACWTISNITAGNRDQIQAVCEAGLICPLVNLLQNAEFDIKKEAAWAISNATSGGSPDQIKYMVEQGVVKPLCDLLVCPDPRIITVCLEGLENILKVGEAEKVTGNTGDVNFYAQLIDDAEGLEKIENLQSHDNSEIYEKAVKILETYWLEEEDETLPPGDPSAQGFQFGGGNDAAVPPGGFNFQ

binding result: no binding
B1: His6:SUMO:SAP (protein)
chain: MANKLKVDELRLKLAERGLSTTGVKAVLVERLEEAIAEDTKKEESKSKRKRNSSNDTYESNKLIAIGEFRGMIVKELREEAIKRGLDTTGTKKDLLERLCNDANN
